ChEMBL document CHEMBL4673265, “The food-grade antimicrobial xanthorrhizol targets the enoyl-ACP reductase (FabI) in Escherichia coli” (Bioorg Med Chem Lett, 2020)
Substitutions are numbered along the chain they refer to. Names and notes keep the numbering of the source.

Experiments:
[1] = compound: NC(=O)C1=CN([C@@H]2O[C@H](COP(=O)(O)OP(=O)(O)OC[C@H]3O[C@@H](n4cnc5c(N)ncnc54)[C@H](O)[C@@H]3O)[C@@H](O)[C@H]2O)C=CC1; test: Inhibition of wild-type Escherichia coli FabI assessed as reduction in Km
[2] = compound: NC(=O)C1=CN([C@@H]2O[C@H](COP(=O)(O)OP(=O)(O)OC[C@H]3O[C@@H](n4cnc5c(N)ncnc54)[C@H](O)[C@@H]3O)[C@@H](O)[C@H]2O)C=CC1; test: Inhibition of wild-type Escherichia coli FabI catalytic activity
[3] = compound: NC(=O)C1=CN([C@@H]2O[C@H](COP(=O)(O)OP(=O)(O)OC[C@H]3O[C@@H](n4cnc5c(N)ncnc54)[C@H](O)[C@@H]3O)[C@@H](O)[C@H]2O)C=CC1; test: Inhibition of wild-type Escherichia coli FabI assessed as ratio of Kcat/Km
[4] = compound: NC(=O)C1=CN([C@@H]2O[C@H](COP(=O)(O)OP(=O)(O)OC[C@H]3O[C@@H](n4cnc5c(N)ncnc54)[C@H](O)[C@@H]3O)[C@@H](O)[C@H]2O)C=CC1; test: Inhibition of Escherichia coli FabI F203V mutant assessed as ratio of Kcat/Km
[5] = compound: NC(=O)C1=CN([C@@H]2O[C@H](COP(=O)(O)OP(=O)(O)OC[C@H]3O[C@@H](n4cnc5c(N)ncnc54)[C@H](O)[C@@H]3O)[C@@H](O)[C@H]2O)C=CC1; test: Inhibition of Escherichia coli FabI F203V mutant assessed as reduction in Km
[6] = compound: NC(=O)C1=CN([C@@H]2O[C@H](COP(=O)(O)OP(=O)(O)OC[C@H]3O[C@@H](n4cnc5c(N)ncnc54)[C@H](O)[C@@H]3O)[C@@H](O)[C@H]2O)C=CC1; test: Inhibition of Escherichia coli FabI F203V mutant catalytic activity
[7] = compound: NC(=O)C1=CN([C@@H]2O[C@H](COP(=O)(O)OP(=O)(O)OC[C@H]3O[C@@H](n4cnc5c(N)ncnc54)[C@H](O)[C@@H]3O)[C@@H](O)[C@H]2O)C=CC1; test: Inhibition of Escherichia coli FabI Y156V mutant catalytic activity
[8] = compound: NC(=O)C1=CN([C@@H]2O[C@H](COP(=O)(O)OP(=O)(O)OC[C@H]3O[C@@H](n4cnc5c(N)ncnc54)[C@H](O)[C@@H]3O)[C@@H](O)[C@H]2O)C=CC1; test: Inhibition of Escherichia coli FabI Y156V mutant assessed as ratio of Kcat/Km
[9] = compound: NC(=O)C1=CN([C@@H]2O[C@H](COP(=O)(O)OP(=O)(O)OC[C@H]3O[C@@H](n4cnc5c(N)ncnc54)[C@H](O)[C@@H]3O)[C@@H](O)[C@H]2O)C=CC1; test: Inhibition of Escherichia coli FabI Y156V mutant assessed as reduction in Km
[10] = compound: NC(=O)C1=CN([C@@H]2O[C@H](COP(=O)(O)OP(=O)(O)OC[C@H]3O[C@@H](n4cnc5c(N)ncnc54)[C@H](O)[C@@H]3O)[C@@H](O)[C@H]2O)C=CC1; test: Inhibition of Escherichia coli FabI G93V mutant assessed as ratio of Kcat/Km
[11] = compound: NC(=O)C1=CN([C@@H]2O[C@H](COP(=O)(O)OP(=O)(O)OC[C@H]3O[C@@H](n4cnc5c(N)ncnc54)[C@H](O)[C@@H]3O)[C@@H](O)[C@H]2O)C=CC1; test: Inhibition of Escherichia coli FabI G93V mutant catalytic activity
[12] = compound: CC(C)=CCC[C@@H](C)c1ccc(C)c(O)c1; test: Uncompetitive inhibition of Escherichia coli FabI G93V mutant assessed inhibition constant using NADH as substrate by Lineweaver-Burk analysis
[13] = compound: NC(=O)C1=CN([C@@H]2O[C@H](COP(=O)(O)OP(=O)(O)OC[C@H]3O[C@@H](n4cnc5c(N)ncnc54)[C@H](O)[C@@H]3O)[C@@H](O)[C@H]2O)C=CC1; test: Inhibition of Escherichia coli FabI G93V mutant assessed as reduction in Km
[14] = compound: NC(=O)C1=CN([C@@H]2O[C@H](COP(=O)(O)OP(=O)(O)OC[C@H]3O[C@@H](n4cnc5c(N)ncnc54)[C@H](O)[C@@H]3O)[C@@H](O)[C@H]2O)C=CC1; test: Inhibition of Escherichia coli FabI F203L mutant assessed as reduction in Km
[15] = compound: NC(=O)C1=CN([C@@H]2O[C@H](COP(=O)(O)OP(=O)(O)OC[C@H]3O[C@@H](n4cnc5c(N)ncnc54)[C@H](O)[C@@H]3O)[C@@H](O)[C@H]2O)C=CC1; test: Inhibition of Escherichia coli FabI F203L mutant catalytic activity
[16] = compound: NC(=O)C1=CN([C@@H]2O[C@H](COP(=O)(O)OP(=O)(O)OC[C@H]3O[C@@H](n4cnc5c(N)ncnc54)[C@H](O)[C@@H]3O)[C@@H](O)[C@H]2O)C=CC1; test: Inhibition of Escherichia coli FabI F203L mutant assessed as ratio of Kcat/Km

B1: Enoyl-[acyl-carrier-protein] reductase [NADH] FabI (Escherichia coli K-12), P0AEK4 (protein)
chain: MGFLSGKRILVTGVASKLSIAYGIAQAMHREGAELAFTYQNDKLKGRVEEFAAQLGSDIVLQCDVAEDASIDTMFAELGKVWPKFDGFVHSIGFAPGDQLDGDYVNAVTREGFKIAHDISSYSFVAMAKACRSMLNPGSALLTLSYLGAERAIPNYNVMGLAKASLEANVRYMANAMGPEGVRVNAISAGPIRTLAASGIKDFRKMLAHCEAVTPIRRTVTIEDVGNSAAFLCSDLSAGISGEVVHVDGGFSIAAMNELELK
B1 was tested, and the Km [1] was 70.2 µM, the kcat [2] was 10.8 s⁻¹ and the kcat/Km [3] was 150000 M⁻¹ s⁻¹.

B2: Enoyl-[acyl-carrier-protein] reductase [NADH] FabI (Escherichia coli K-12), P0AEK4 F203V (protein)
chain: B1 chain with F203V
B2 gave a kcat/Km [4] of 9000 M⁻¹ s⁻¹, a Km [5] of 44.2 µM and a kcat [6] of 0.38 s⁻¹.

B3: Enoyl-[acyl-carrier-protein] reductase [NADH] FabI (Escherichia coli K-12), P0AEK4 Y156V (protein)
chain: B1 chain with Y156V
Protein B3 has a kcat [7] of 0.16 s⁻¹, a kcat/Km [8] of 4000 M⁻¹ s⁻¹ and a Km [9] of 41.7 µM.

B4: Enoyl-[acyl-carrier-protein] reductase [NADH] FabI (Escherichia coli K-12), P0AEK4 G93V (protein)
chain: B1 chain with G93V
B4 showed a kcat/Km [10] of 110000 M⁻¹ s⁻¹, a kcat [11] of 3.44 s⁻¹ and a Ki [12] of 4.1 µM. It also gave a Km [13] of 30.9 µM.

B5: Enoyl-[acyl-carrier-protein] reductase [NADH] FabI (Escherichia coli K-12), P0AEK4 F203L (protein)
chain: B1 chain with F203L
In the case of B5, the Km [14] is reported as 51.5 µM, the kcat [15] is reported as 3.65 s⁻¹ and the kcat/Km [16] is reported as 70000 M⁻¹ s⁻¹.
